The supplement of paper PMC9170038

System: K4 kissing-loop RNA reporter
Experiment: apparent KD of K4 kissing-loop reporter; higher = weaker reporter binding
Conditions: Eterna round: R107
Experimental: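 RNA-MaP round R107: designed RNA switches with theophylline, tryptophan, arginine or FMN aptamers are transcribed on-chip within common flanks. They are titrated with a labelled K4 kissing-loop RNA reporter in RNA-MaP buffer (100 mM Tris pH 7.5, 80 mM KCl, 4 mM MgCl2), without ligand or with the indicated ligand. Median apparent KD per design.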

[1] = input ligand: theophylline 20 uM
[2] = input ligand: tryptophan 2.4 mM
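Also: bound reporter read as fluorescence of individual clusters on recovered sequencing chips by microscopy, with normalized cluster intensities fitted with a binding model.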

| Sequence | apparent KD of K4 kissing-loop reporter (input ligand: FMN 200 uM) | apparent KD of K4 kissing-loop reporter (input ligand: arginine 13.2 mM) | apparent KD of K4 kissing-loop reporter (input ligand: none) | apparent KD of K4 kissing-loop reporter [1] | apparent KD of K4 kissing-loop reporter [2] |
| --- | --- | --- | --- | --- | --- |
| CCAUCGCUAUUCGAUACCAGUCAGGAGGUCUGUGACCUCCUAAUGGAGUGAUGUUCCUUAGACCCUUGGCAGCGAAUAGUGAUGG [#02 K4 Theophylline B Same State] | 203 nM | 196 nM | 221 nM | 141 nM | 202 nM |
| CCAUCGCUAUUCGAUACCAGUCAUAAAAUCUUUGGUUAAAUAAAGGAGUGAUGUUCCAAAGACCCUUGGCAGCGAAUAGUGAUGG [Theophylline B K4 6] | 670 nM | 624 nM | 695 nM | 887 nM | 780 nM |
| CCAUCGCUAUUCGAUACCAGUCAUAAAAUCUUUGGUUUAAUAAAGGAGUGAUGUUCCCAAGACCCUUGGCAGCGAAUAGUGAUGG [Theophylline B K4 8] | 186 nM | 185 nM | 176 nM | 197 nM | 190 nM |
| CCAUGAGGAUAAGAUGAUAUCAUAACAGAAGGAGCGAGUGAUAACUCAGGUAGGUCGCUGAAUUUAUCGAGUGAUGUUCGAUGAA [Same State Arginine A GF11] | 194 nM | 164 nM | 193 nM | 179 nM | 164 nM |
| CCAUUCAUCAGAAGGAGCGUCAAGUGAUGCUAUCCAGUGAUGUUGGAUAGCACGGAACAGUGACAGGUAGGUCGCUGAUGAGAGC [Arg B SS t8] | 121 nM | 106 nM | 115 nM | 95.7 nM | 131 nM |
| CCAUUCUGUUACGAUACCAGUCAAAUAUAUUUGAUCAAUACCCUCGCCGAGUGAUGUUCGGACCCUUGGCAGCGUCUGGGACAGG [ccdfmullin] | 537 nM | 561 nM | 710 nM | 544 nM | 596 nM |
| CCCAAAAUAUGCAGUGAUGUUGCAACCGAUACCAGUAUCGAAAGAUACCCUUGGCAGCGGAAAACCGCUACGUAAUUUAAAAGGG [Ex Theophylline A K4 17] | 308 nM | 318 nM | 311 nM | 603 nM | 254 nM |
| CCCAAAAUAUGCAGUGAUGUUGCAACUGAUACCAGUAUCGAAAGAUACCCUUGGCAGCGGAAAACCGCUACGUAAUUUAAAAGGG [Ex Theophylline A K4 18] | 200 nM | 292 nM | 255 nM | 340 nM | 187 nM |
| CCCAAGGGCGAACCGGUAUGAUCGACGGAUACCAGAGGCGAAAGCCUCCCUUGGCAGCCGGCUGUAGUGAUGUUACACUGGUUCU | 139 nM | 98.9 nM | 168 nM | 186 nM | 143 nM |
| CCCGGUCCACGAAGGAGCGCCGUGCAGUGAUGUUGCAGUUAGAUCCAGUGAUGUUUGGGCCGGCAGGUAGGUCGCGUGGCCCGGG [Excusion Arginine B GF 24] | 199 nM | 197 nM | 250 nM | 197 nM | 188 nM |
| CCCUAAAUAUGCAGUGAUGUUGCAACUGAUACCAGUAUCGAAAGAUACCCUUGGCAGCGGAAAACCGCUACGUAAUUUAAUAGGG [Ex Theophylline A K4 20] | 294 nM | 393 nM | 387 nM | 402 nM | 285 nM |
| CCCUCACGAGUGAUGUUCGUAGGGUACAGUCAGGAUAUCAUGCGGUUGAGAAGGGACAGAAAGGGCGGCCACGGGUUGCUCAUUU [Issogeso] | 200 nM | 352 nM | 343 nM | 492 nM | 530 nM |
| CCCUCACGAGUGAUGUUCGUAGGGUACAGUCAGGAUAUCAUGCGGUUGAGAAGGGACAGAGAAGGCGGCCACGGGUUGCUUAUCU [Ussoat] | 215 nM | 258 nM | 342 nM | 388 nM | 308 nM |
| CCGACUGCAGGAAGGAGCGGCGGUUGGAGUGAUGUUCCGGGUAGUGAUGUUACCAAACUCCGCCAGGUAGGUCGCCUGUUGCUCG [Same State Arginine B GF10] | 151 nM | 112 nM | 165 nM | 179 nM | 144 nM |
| CCGAGCCUGACGUAAGUCAGGCUCUGCGAGCGAGGACCGGUACGGCCGCCACUCGGUGCAGUGAUGUUGCAUGGCCGCAAGGCCG [#2 Exclusion - Tryptophan A Attempt #23 (HarryS)] | 293 nM | 274 nM | 235 nM | 235 nM | 351 nM |
| CCGCCGGUCGGAAGGAGCGCACGCCAGAGUGAUGUUCUGGCGCGGGCACUUUAUGCCCGCGUGCAGGUAGGUCGCCGAUUCUGGC [Mabema] | 464 nM | 426 nM | 445 nM | 446 nM | 417 nM |
| CCGCCGGUCGGAAGGAGCGCACGCCAGAGUGAUGUUCUGGCGCGGGCAUUUUGUGCCCGCGUGCAGGUAGGUCGCCGAUUCUGGC [Quxeorti] | 602 nM | 414 nM | 427 nM | 452 nM | 498 nM |
| CCGCUACCCUCAGGAUAUUAAAUAUUAGUGAUGUUAGUAAACCGAUGGCGAAAGCCAUCGGUAUGUUGAGAAGGGAGGGUAGCGG [whbob_SS_FMNB__2th197] | 403 nM | 1810 nM | 2240 nM | 891 nM | 880 nM |
